The source of these data is the RNAGym collection of RNA variant scans (doi:10.7554/elife.90254).

B1: LINE1-mini (parent)
chain: GGCAGAGCUCAACACAGCGUGGCAAAGUGGCUGUGGCUAGACUGCC

Variants of B1 are the subject of this data set. The data set is described as follows: self-cleavage, relative activity (ratio to wild type); higher = more cleavage; in vitro, sequencing; the parent is a self-cleaving ribozyme.
As to A16C, the self-cleavage was 0.11. The figure for C15U G40A is 0.14.

With C15U G40U, the self-cleavage turned out to be 0.12.

With C15U G40C, the self-cleavage is 0.07. As to G17A C23U, the self-cleavage amounted to 0.22.

As to G17A C23G, the self-cleavage is 0.13.

Take G17A C23A: the self-cleavage worked out at 0.29.

Consider A16G U32A, for which the self-cleavage stood at 0.07.

In the case of A16G U32C, the self-cleavage was 0.26. The figure for A16G U32G is 0.11; for A16C U32C it is 0.09; for A16C U32G it is 0.4. The figure for A16C U32A is 0.13; for A16C C18A it is 0.06; for A16C C18G it is 0.04. Then A16C C18U, with 0.09; and A16U U20G, with 0.03. As for A16U U20A, the self-cleavage came out at 0.06.

With A16U U20C, the self-cleavage came out at 0.26.

Consider A16C U38C, for which the self-cleavage came out at 0.1. As for A16C U38G, the self-cleavage was found to be 0.03. The figure for A16C U38A is 0.13; for A16C G19A it is 0.18. On to A16C G19U, for which the self-cleavage stood at 0.08. As for A16C G19C, the self-cleavage amounted to 0.4. Turning to C15U U20C, the self-cleavage is 0.32. The figure for C15U U20A is 0.92; for C15U U20G it is 0.49. Turning to A16C U43A, the self-cleavage is 0.04. On to A16C U43C, for which the self-cleavage turned out to be 0.08.

A16U U43C: the self-cleavage is 0.04. A16U U43A: the self-cleavage amounted to 0.05. For A16U U43G, the self-cleavage is 0.02.

As for A16U G33C, the self-cleavage was found to be 0.07. The figure for A16U G33U is 0.14; for A16U G33A it is 0.07. The figure for C15U U32G is 0.12; for C15U U32C it is 0.08. Turning to C15U U32A, the self-cleavage is 0.09. The figure for A16C G21A is 0.14. The figure for A16C G21U is 0.07. The figure for A16C G21C is 0.22. On to A16G A25C, for which the self-cleavage was found to be 0.06. Then A16G A25U, with 0.31; and A16G A25G, with 0.04. Turning to A16C G33C, the self-cleavage turned out to be 0.05.

For the variant A16C G33U, the self-cleavage stood at 0.05.

As for A16C G33A, the self-cleavage stood at 0.07.

Consider A16C A39C, for which the self-cleavage stood at 0.02. The figure for A16C A39U is 0.09; for A16C A39G it is 0.04; for A16U G40C it is 0.05. The figure for A16U G40A is 0.04; for A16U G40U it is 0.07; for A16U U38A it is 0.1. Then A16U U38C, with 0.04. Turning to A16U U38G, the self-cleavage was found to be 0.02.

Consider A16G A26U, for which the self-cleavage was 0.52. With A16G A26C, the self-cleavage is 0.84. Take A16G A26G: the self-cleavage is 0.37. The figure for A16G G27U is 0.68; for A16G G27A it is 0.78. The figure for A16G G27C is 0.17; for C15U U28C it is 1.52. As for C15U U28A, the self-cleavage was found to be 1.35. Then C15U U28G, with 0.31; and A16G G17C, with 0.31. For A16G G17A, the self-cleavage was 0.15. The figure for A16G G17U is 0.32; for A16G C37G it is 0.02; for A16G C37U it is 0.04. Consider A16G C37A, for which the self-cleavage worked out at 0.08.

On to G17A A26C, for which the self-cleavage worked out at 0.34.

For the variant G17A A26G, the self-cleavage is 0.1. G17A A26U: the self-cleavage stood at 0.21. The figure for A16U C45U is 0.11; for A16U C45G it is 0.13; for A16U C45A it is 0.1. With A16U G44C, the self-cleavage was determined as 0.03. Then A16U G44U, with 0.03; and A16U G44A, with 0.05. The figure for C15U G33C is 0.09; for C15U G33U it is 0.37. Then A16G C31G, with 0.02; and A16G C31U, with 0.03; and A16G C31A, with 0.03. Take A16C C45A: the self-cleavage amounted to 0.07.

As for A16C C45G, the self-cleavage was 0.06. The figure for A16C C45U is 0.07. In the case of A16C C42G, the self-cleavage was 0.09. In the case of A16C C42A, the self-cleavage was 0.05. The figure for A16C C42U is 0.06; for G17A A39C it is 0.07.

For G17A A39G, the self-cleavage is 0.06. In the case of G17A A39U, the self-cleavage is 0.06. The figure for A16U A25U is 0.1; for A16U A25G it is 0.07; for A16U A25C it is 0.03.

For the variant A16C U20G, the self-cleavage was determined as 0.08.

As to A16C U20A, the self-cleavage came to 0.05.

A16C U20C: the self-cleavage was 0.19. As for A16U G17A, the self-cleavage stood at 0.06. Turning to A16U G17C, the self-cleavage is 0.2. Take A16U G17U: the self-cleavage was 0.03. In the case of A16U G35A, the self-cleavage was 0.01. On to A16U G35C, for which the self-cleavage amounted to 0.07. Then A16U G35U, with 0.04; and C15U G36A, with 0.15. As for C15U G36C, the self-cleavage worked out at 0.06. The figure for C15U G36U is 0.12; for A16U A24C it is 0.1; for A16U A24G it is 0.1.

Turning to A16U A24U, the self-cleavage amounted to 0.11. As to A16U C37G, the self-cleavage stood at 0.07. With A16U C37A, the self-cleavage was 0.11. In the case of A16U C37U, the self-cleavage came out at 0.06. With A16G G36C, the self-cleavage turned out to be 0.05. Then A16G G36U, with 0.04; and A16G G36A, with 0.53. For the variant A16G G44A, the self-cleavage is 0.25. Then A16G G44U, with 0.05; and A16G G44C, with 0.19; and A16U U34A, with 0.04.

In the case of A16U U34C, the self-cleavage was 0.07. Then A16U U34G, with 0.02. Take A16C C31U: the self-cleavage was 0.03.

As for A16C C31A, the self-cleavage came to 0.08.

As for A16C C31G, the self-cleavage is 0.03. In the case of A16C G35C, the self-cleavage turned out to be 0.06. Consider A16C G35U, for which the self-cleavage turned out to be 0.03. On to A16C G35A, for which the self-cleavage came to 0.06. For the variant A16U U28A, the self-cleavage was found to be 0.26. Regarding A16U U28G, the self-cleavage stood at 0.22. Then A16U U28C, with 0.55. Take A16G A39U: the self-cleavage worked out at 0.14.

On to A16G A39G, for which the self-cleavage amounted to 0.07. Then A16G A39C, with 0.12; and A16U G36A, with 0.06; and A16U G36C, with 0.07. A16U G36U: the self-cleavage was found to be 0.06.

Turning to A16G C45U, the self-cleavage is 0.45. The figure for A16G C45G is 0.11; for A16G C45A it is 0.14. Regarding A16G C46U, the self-cleavage turned out to be 0.55.

On to A16G C46A, for which the self-cleavage came to 0.64. The figure for A16G C46G is 0.68; for A16G G19U it is 0.47; for A16G G19A it is 1.31. Consider A16G G19C, for which the self-cleavage was found to be 0.5.

Turning to A16C G44A, the self-cleavage was 0.05. Consider A16C G44U, for which the self-cleavage turned out to be 0.07. Then A16C G44C, with 0.02. Then A16U G29C, with 0.53; and A16U G29U, with 0.39. As to A16U G29A, the self-cleavage stood at 0.38. On to C15U U34C, for which the self-cleavage was 0.14. The figure for C15U U34A is 0.08; for C15U U34G it is 0.07. The figure for A16G U20A is 0.16; for A16G U20C it is 0.37. Then A16G U20G, with 0.16.

As for A16U G19A, the self-cleavage is 0.19. As for A16U G19U, the self-cleavage amounted to 0.2. Then A16U G19C, with 0.6. For the variant A16C A41C, the self-cleavage came out at 0.03.

On to A16C A41G, for which the self-cleavage came to 0.02. As for A16C A41U, the self-cleavage is 0.05.
